140 substances from the supplement of paper PMC12042874 can be followed below.

± gives the uncertainty stated by the source.

A short description of the series: amyloid nucleation score (Sup35N fusion, yeast selection) (log enrichment); library NNK2; higher = more nucleation; inactive = no reads after selection. A digest of the protocol: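 For the nucleation score, DiMSum gave the log enrichment of output over input reads, centred on the mode score of non-aggregating sequences. Psi-negative yeast expressing Sup35N fused to peptides of 20 random codons were induced with 100 μM copper sulfate for 24 hours and grown 7 days at 30°C on medium lacking adenine and uracil. Input and output plasmid inserts were Illumina-sequenced, and sequences with under 100 input reads were excluded.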

Substance CWGVVGSAAGWYSGTK showed an amyloid nucleation score of 1.46 ± 0.21.

Substance ELGVTNLDVDRHIDY yielded an amyloid nucleation score of -0.038 ± 1.1.

Take KSRFIFRVSVLDPRASVAWL: the amyloid nucleation score entry is “inactive”.

In the case of DQESRNSVFSGKGGRRDVSS, the amyloid nucleation score is -0.134 ± 0.37. Consider GEKTVLVYMVG, for which the amyloid nucleation score was 4.9 ± 0.07. As for IYACSCLIKVDFYEAIPIWV, the amyloid nucleation score result was “inactive”. Substance GLSNLTYDFFPEKPP registered an amyloid nucleation score of -1.45 ± 0.62.

Substance DGRKALI showed an amyloid nucleation score of 1.87 ± 0.35. On to TGGTVMRVR, for which the amyloid nucleation score is 0.297 ± 0.29. As to YDEYF, the amyloid nucleation score result was “inactive”. As to YSSFIDNHFAVRR, the amyloid nucleation score was -0.448 ± 0.49. Consider LYLKFYLCTGKDNDWNT, for which the amyloid nucleation score result was “inactive”.

As for RDTVFYILSAWNLSAGSRKA, the amyloid nucleation score stood at 3.04 ± 0.089. The substance HKRFKEGLSG gave an amyloid nucleation score of 0.047 ± 0.36. Under VISASSVAP stands 0.557 ± 0.31. Under KLKCHMSESLKWIGAVKSRR stands 0.776 ± 0.43; under KSTATSYVMPK, -0.072 ± 0.25; under DRLGTYSS, 0.409 ± 0.54. ELLSRETIKDHWMTIIKYFL displayed an amyloid nucleation score of -0.143 ± 0.74. Turning to WARNEIYRRSTNKWPPMVRG, the amyloid nucleation score is -0.014 ± 0.76. Substance SFWNQKYCA displayed an amyloid nucleation score of -0.117 ± 0.4. As to LLFCKPDAHFVLCSFYPLML, the amyloid nucleation score result was “inactive”.

For the substance RWTLWFEGRLERLVAIIS, the amyloid nucleation score was -0.133 ± 1. Next, FLSVARPTF: “inactive”; KIRASVNSSRFFWFDAS: 2.96 ± 0.13; SKPCGKVIYWKDRLSKLSEK: “inactive”. Substance FNNVILSRV gave an amyloid nucleation score of -1.5 ± 0.61. LQYCHRGC showed an amyloid nucleation score of -0.179 ± 0.44.

Turning to YVYVDYWICTIWCVLCNLCS, the amyloid nucleation score turned out to be 0.256 ± 1. Substance LVRDHRNRVGFCQMSQ showed an amyloid nucleation score of 0.248 ± 0.44. SSSSPHLDNLLGSGRLEIPS gave an amyloid nucleation score of 0.56 ± 0.56. Next, VWKINISWRPSLSLLVIRLV: -0.594 ± 0.27.

ITSFKWVLKGSWCKGRESKF registered an amyloid nucleation score of 4.87 ± 0.068. Under LYVCPSASWESCPGGIKRMG stands “inactive”; under PLLRSKKKSALYPA, -0.021 ± 0.63.

The substance VAFKRLGNMSSGTFSWAMLN gave an amyloid nucleation score of 0.894 ± 0.74. Take SLTTLCNLTIWDH: the amyloid nucleation score turned out to be 0.756 ± 0.53. Substance LMSCRILRSAKRGHSNVKRF yielded an amyloid nucleation score of 0.254 ± 0.46. DQSTSFFIFYNQTNWSMLFP came in with an amyloid nucleation score of 6.12 ± 0.056. In turn, TVRMIMLANLIQSYWHTIVS registered an amyloid nucleation score of -0.153 ± 0.65.

In turn, YFYNGSRA registered an amyloid nucleation score of -1.61 ± 1.1. For ALWTLNDSSPDYKSPYTGGS, the amyloid nucleation score turned out to be 0.508 ± 0.6. Substance RCRFPVVIKQRDLVKEVMV showed an amyloid nucleation score of -0.222 ± 0.46.

On to LWFYFFRDYLIGPMWNKIVI, for which the amyloid nucleation score was -0.898 ± 1.1. Consider HRLVGTC, for which the amyloid nucleation score amounted to 1.86 ± 0.21. Substance HNLEWKNRNQTWSSLTPIVW had an amyloid nucleation score of 0.384 ± 0.44.

Turning to YHWNVGIDGYLNSTMLLQAY, the amyloid nucleation score result was “inactive”. Under CINANRGRFLKEIMDLVLRE stands -0.586 ± 0.23.

As to YDGAIDITTGLFLCFWVCTV, the amyloid nucleation score came out at 3.96 ± 0.047.

The substance RSRSSFLHIFSSFKHISTR registered an amyloid nucleation score of -0.74 ± 1.1. Under GSVFSKHQGSFVFSLQQLGL stands -1.43 ± 0.34; under LKNLGYNMSPMYHWHCSSSK, -0.003 ± 1.1; under LSLFLLVICSSAFM, “inactive”. Next, VFSDWVSSKPLRSVVPCFCN: -0.496 ± 1.1; TGCTFCKSMCLYGETSRKDN: 0.132 ± 0.36. Take YFVCVASDGNMGIRYATR: the amyloid nucleation score result is “inactive”. Under IITMLGQEWAFGKLFDPLTL stands 0.524 ± 0.34; under ALFMDPFAVTLMRGL, 0.137 ± 0.54. As for KPLLVN, the amyloid nucleation score amounted to 0.271 ± 0.46. In the case of QYPDSCS, the amyloid nucleation score was -0.381 ± 0.79.

With RTWQCDDWSQYLLVVF, the amyloid nucleation score was -0.1 ± 1. FYQGLATILSSSLVPIHRHQ: the amyloid nucleation score result was “inactive”. The substance AMSECQHKMQWAAFSVFPGQ showed an amyloid nucleation score of 5.91 ± 0.089.

The substance LVVLLMRWSLPLNVESGMF came in with an amyloid nucleation score of -0.105 ± 1.1. Under YTTYGHTSHLTLYPYTPRMM stands 0.123 ± 0.74. MFYFRFLKGTSQMIKAAMRS: the amyloid nucleation score was -0.059 ± 0.49. YWFFCGRWK registered an amyloid nucleation score of 4.7 ± 0.11. Next, FNFIIAQE: -1.1 ± 1.1.

Consider GILVRRYAWSELMNGED, for which the amyloid nucleation score is 0.116 ± 0.49. As for SRYGRTEGRFFVRRRGMHHG, the amyloid nucleation score stood at 0.21 ± 0.32. Under PSIWSLDGSYFCSADENCKR stands “inactive”; under AVIVAIFCSSGYYRHFYTFT, -0.214 ± 1. As for NSESVICVLQGGFIRACV, the amyloid nucleation score was -0.551 ± 0.45. On to MEVNLKVKSLCQWGT, for which the amyloid nucleation score was 6.791 ± 0.045.

As to SLKMRNRWGIDVVE, the amyloid nucleation score amounted to 0.386 ± 0.23. The substance KVIWIRCLFLYMCWAAHG displayed an amyloid nucleation score of -0.557 ± 0.78. Next, PFYVSRRVCKYAF: -0.301 ± 0.28; NEIFGTVIC: -1.12 ± 1.

For the substance AMLRPQTDHGVSSIHSLIIG, the amyloid nucleation score entry is “inactive”. For the substance LICAL, the amyloid nucleation score turned out to be 0.61 ± 0.39.

LVSERGSWVGLRFCSRSSVT showed an amyloid nucleation score of 0.359 ± 0.56. Under RVSHEHVYLSNFVTPWLCYY stands 5.913 ± 0.049; under LGWINKWKRLSNIPIAKWHC, “inactive”. Next, LPGSRHNSRMSLRTQVVKVL: “inactive”; LVNMGSGPALYLYPLSIMVK: -1.42 ± 1.1; VYNSFSAFFYG: 7.051 ± 0.036. Under LKCSFAVTDAWIGNRRAQRQ stands 1 ± 0.2; under TSYIYLMISASPQFLS, 4.04 ± 0.11; under CILARWRYRRLHTSGLWASK, 0.9 ± 0.43. DFDVEA displayed an amyloid nucleation score of -0.176 ± 1.1. Turning to RMFSIRFMWCFCSRRKPLLG, the amyloid nucleation score entry was “inactive”. Under FGSVRASGISDFGRMDHGTG stands -0.079 ± 0.76. For TRVLYPACVCHGRSISFGVE, the amyloid nucleation score came to 0.134 ± 0.44. Under NYRMCFTLHSCYLIRSDNLS stands “inactive”; under LLLVPIPH, 1.07 ± 0.38; under AKSNLVDFYTFWSTIECLTM, -0.808 ± 0.48.

For YQDSKRE, the amyloid nucleation score was -0.833 ± 1.1. HVGVHSNFLQIS showed an amyloid nucleation score of -1.34 ± 1. Next, HFSLAC: -0.91 ± 0.48. As for NCSCIFKNCGFNWVFLGRIL, the amyloid nucleation score amounted to 2.29 ± 0.17. RFMWLTLSSFQGLAEGLCTF: the amyloid nucleation score is -0.631 ± 0.76. Turning to FTVGSMSGDFWLLCWYLR, the amyloid nucleation score was determined as 3.09 ± 0.15.

GNVVMN came in with an amyloid nucleation score of 0.863 ± 0.18.

For QSYWSWLKKVSRFVYPHTRS, the amyloid nucleation score was 0.291 ± 0.26.

Consider LHGVSAIMLGTIGARVN, for which the amyloid nucleation score was -0.125 ± 0.49. In turn, WHDNSSNGTGEGNFVRPVPV gave an amyloid nucleation score of 1.13 ± 0.11. As for FINSD, the amyloid nucleation score result was “inactive”. The substance YFCCVSTIARSMFLSRGSGR came in with an amyloid nucleation score of 8.771 ± 0.058. Regarding STELYARMVKCCVGIADYTD, the amyloid nucleation score stood at 0.491 ± 0.66.

As for SSYNCPHINVCSPSAPNTQM, the amyloid nucleation score entry is “inactive”.

As for VIYIWVSVPITPWESIIRGI, the amyloid nucleation score entry was “inactive”. The substance LSYVFIVECPSSAGMLPRPF registered an amyloid nucleation score of 4.01 ± 0.13. Next, GKQTP: -0.711 ± 0.45; RVPGPVHSSCYTAARFFCPM: 1.83 ± 0.14. On to SKGRYAYRRMGAYLCSD, for which the amyloid nucleation score stood at 1.48 ± 0.43. Turning to YMRDFYRVRNYRRCCVVCPS, the amyloid nucleation score was -1.59 ± 1.1. Next, FTFIHFLCVSVHLLNSWS: 0.42 ± 0.56; FSVTMF: -0.197 ± 0.33; WNCLICRYVNVCKLLCFYY: 6.505 ± 0.031. Consider RFERISQAKIARTLGLWEML, for which the amyloid nucleation score was 0.878 ± 0.17. As to CNNCYALYHDGV, the amyloid nucleation score is -0.396 ± 0.39. Next, RSHMSRLIVDFNTG: 0.474 ± 0.3. FALHGEFFYHKKRSQGFRAH: the amyloid nucleation score is -1.36 ± 0.61. The substance SLILDNVDEGQSFSMGVCLG came in with an amyloid nucleation score of 0.462 ± 0.66. CEFRDQRFPLVCAGYGRYIG came in with an amyloid nucleation score of 0.653 ± 0.57. For FEVFLM, the amyloid nucleation score was -0.499 ± 0.41. Under TDVFCLDKSVQTRILTEVAT stands -0.439 ± 0.41; under NGRLWNGFMYCGWTNWFFCV, 1.11 ± 0.34; under FHAKRTINMNGATVQYGLYA, -0.354 ± 0.76.

KRHNR gave an amyloid nucleation score of 0.846 ± 0.48. SRNNIAQFCSLHAN: the amyloid nucleation score result was “inactive”. RMSRVEWIPHVDFYPTHGLI showed an amyloid nucleation score of -0.439 ± 0.63. In the case of LDPSVLMLWLFYRVQSLHVS, the amyloid nucleation score stood at 0.008 ± 0.35. VMRIVMIDMKSESWSTERVS: the amyloid nucleation score was 0.611 ± 0.57. For the substance TANLKDSGQSYFKTRSVWTF, the amyloid nucleation score result was “inactive”. For the substance FYLLVFDLHDSCL, the amyloid nucleation score entry was “inactive”. In turn, NGFYSGDFWEADGTRLDVTC came in with an amyloid nucleation score of 0.053 ± 0.79.

For the substance PSSISLTVYKSRMGEYWCKG, the amyloid nucleation score result is “inactive”. The substance SSTYIERGLSHGKDRT gave an amyloid nucleation score of 0.731 ± 0.46. As for ISCSKMRRFWHL, the amyloid nucleation score was determined as 0.587 ± 0.29.
